Experimental data as given in patent publication US20220002432A1 (VIRTUOSO BINCO, published 2022).

Key:
[1] = molecular target: T1, ICAM1 on the surface of DU145 cells (human, UniProt P05362 28-532); assay: flow cytometry, DU145 cells;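 note: purified antibodies in dilution series bound to cells for 1 h at 4 °C, detected with a fluorescent secondary antibody (1 h, 4 °C, dark), read by flow cytometry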
T1 construct: whole, on cells
Protocol: Harvested cells were centrifuged at 2000 rpm for 5 min and resuspended with 10-15 ml ice-cold culture medium. Cells were counted and then 3×10⁶ cells were resuspended per mL of blocking buffer (PBS plus 2% FBS). 100 μl of the cell suspension was dispensed into each well of a 96-well plate and incubated at room temperature for 10-20 min. […] While incubating, purified antibodies were diluted to the desired dilution with blocking buffer. After a 10-20 minutes incubation, cells were centrifuged for 5 min at 2000 rmp in a refrigerated centrifuge. Blocking buffer was aspirated, and cells were resuspended in 100 μl/well diluted antibodies and incubated for 1 hour at 4° C. The cells were then washed 3 times with PBS plus 2% FBS. After the final wash, the cells were resuspended in 100 μl 1:500 diluted secondary antibody (Invitrogen, Cat #: A10631) and incubated for 1 hour at 4° C. in the dark. The cells were then washed 3 times with 200 μl PBS by centrifuging at 2000 rpm for 5 min. After the last wash, the cells were resuspended in 300 μl cold PBS and analyzed on a FACSVerse™ (BD Biosciences) flow cytometer.

[2] = molecular target: T2, recombinant human ICAM1 (human, UniProt P05362 28-480, limits assumed); assay: SPR (Biacore 8K), antibody captured, antigen injected
Protocol: (§1) The binding kinetics of the anti-CD38 and anti-ICAM1 antibodies were evaluated on a Biacore 8K instrument (GE Healthcare). Biacore Series S CM5 sensor chips were immobilized with monoclonal mouse anti-human IgG (Fc) antibody (human antibody capture kit from GE Healthcare). Antibodies were captured on each flow cell. Serial 3-fold dilutions of each antigen were injected at a flow rate of 30 μl/min. Each sample was analyzed with 1 min association and 10 min dissociation at room temperature (25° C.). After each injection, the chip was regenerated using 3M MgCl₂. A 1:1 Langmuir model of simultaneous fitting of kₒₙ and koff was used for kinetics analysis.

[3] = molecular target: T3, Rhesus-ICAM1 (rhesus, UniProt Q5NKV6 28-480, limits assumed); assay: as above
T3 sequence (looked up): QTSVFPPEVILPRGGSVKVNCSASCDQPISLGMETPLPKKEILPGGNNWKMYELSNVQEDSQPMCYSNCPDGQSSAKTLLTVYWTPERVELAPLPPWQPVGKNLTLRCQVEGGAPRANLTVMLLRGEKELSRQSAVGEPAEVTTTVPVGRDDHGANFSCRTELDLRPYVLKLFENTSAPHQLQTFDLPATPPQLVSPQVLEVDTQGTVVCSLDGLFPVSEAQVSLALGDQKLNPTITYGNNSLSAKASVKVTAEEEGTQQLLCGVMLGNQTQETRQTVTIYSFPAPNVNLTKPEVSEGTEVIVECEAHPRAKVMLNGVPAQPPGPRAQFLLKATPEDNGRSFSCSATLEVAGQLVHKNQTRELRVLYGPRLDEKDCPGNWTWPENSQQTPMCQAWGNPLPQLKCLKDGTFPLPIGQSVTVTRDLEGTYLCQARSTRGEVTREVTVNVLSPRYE
Protocol: as §1

[4] = molecular target: T2, recombinant human ICAM1; assay: SPR (Biacore T200), antigen immobilised, antibody injected
Protocol: The binding kinetics of the bispecific anti-CD38/anti-ICAM1 antibodies were evaluated using Biacore T200 (GE Healthcare). The recombinant CD38 or ICAM1 were immobilized at low density on Biacore Series S CM5 sensor chips using the amine coupling kit (GE Healthcare). Serial 3-fold dilutions of each antibody were injected at a flow rate of 30 ul/min. Each sample was analyzed with 3m association and 15 min dissociation at room temperature (25° C.). After each injection, the chip was regenerated using 10 mM Glycine pH1.5. A 1:1 Langmuir model of simultaneous fitting of kₒₙ and koff was used for kinetics analysis.

[5] = molecular target: T2, recombinant human ICAM1; assay: ELISA: plate coated with 1 ug/ml recombinant human ICAM1 ECD, serially diluted antibody, OD450
Protocol: (§2) The plate was coated overnight at 4° C. with 1 μg/ml recombinant CD38 or ICAM1. After washing 3 times, the plate was blocked with 300 μl 1% BSA in PBST at 37° C. for 1 hour. Serially diluted antibodies were added and incubated at 37° C. for 1 hour. The plate was then washed 4 times with PBST and incubated with 1:5000 diluted 2nd antibody (Sigma, Cat #A0293) at 37° C. for 1 hour.

[6] = molecular target: T3, Rhesus-ICAM1; assay: ELISA: plate coated with 1 ug/ml recombinant rhesus ICAM1 ECD, serially diluted antibody, OD450
Protocol: as §2

T2 sequence (P05362 28-480 limits assumed): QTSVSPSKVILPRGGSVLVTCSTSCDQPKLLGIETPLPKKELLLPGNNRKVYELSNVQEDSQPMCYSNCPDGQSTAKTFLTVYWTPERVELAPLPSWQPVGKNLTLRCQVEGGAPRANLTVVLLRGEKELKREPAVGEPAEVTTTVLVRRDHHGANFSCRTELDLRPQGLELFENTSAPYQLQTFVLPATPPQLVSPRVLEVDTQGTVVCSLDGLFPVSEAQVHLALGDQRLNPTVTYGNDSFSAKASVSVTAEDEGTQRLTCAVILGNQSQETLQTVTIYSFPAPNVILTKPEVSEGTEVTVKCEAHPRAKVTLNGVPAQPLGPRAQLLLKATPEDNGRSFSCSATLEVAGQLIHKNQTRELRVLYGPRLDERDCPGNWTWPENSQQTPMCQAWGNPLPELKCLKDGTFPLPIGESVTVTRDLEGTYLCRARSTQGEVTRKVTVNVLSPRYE
T1 sequence (P05362 28-532): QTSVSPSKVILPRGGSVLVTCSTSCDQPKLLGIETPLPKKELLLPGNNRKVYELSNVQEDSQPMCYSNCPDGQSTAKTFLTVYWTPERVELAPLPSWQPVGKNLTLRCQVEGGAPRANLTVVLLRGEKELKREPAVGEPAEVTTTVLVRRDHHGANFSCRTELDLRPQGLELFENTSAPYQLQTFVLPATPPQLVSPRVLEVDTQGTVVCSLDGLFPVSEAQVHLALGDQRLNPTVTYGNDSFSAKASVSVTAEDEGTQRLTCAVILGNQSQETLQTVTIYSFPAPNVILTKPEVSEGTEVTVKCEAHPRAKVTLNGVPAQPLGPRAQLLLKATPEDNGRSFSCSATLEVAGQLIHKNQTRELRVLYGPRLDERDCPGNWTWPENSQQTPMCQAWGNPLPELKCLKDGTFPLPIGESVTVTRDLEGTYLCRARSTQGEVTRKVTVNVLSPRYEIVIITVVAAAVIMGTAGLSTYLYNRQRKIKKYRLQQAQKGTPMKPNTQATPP

B1: Anti-ICAM1 G12 (antibody, human IgG1, lambda, V domains shown)
VH: QVQLQESGGGLVQPGGSLRLSCAASGFTFSSYAMSWVRQAPGKGLEWVSAISGSGGSTYYADSVKGRFTISRDNSKNTLYLQMSSLRAEDTAFYYCANSAYTGGWYDYWGHGTLVTVSS
VL: ASELTQDPAVSVALGQTVKITCQGDSLRTYYASWYQQRPGQAPVLVIYGENSRPSGIPDRFSGSSSGNTASLTITGAQAEDEADYYCNSRDSSGNHLRVFGGGTKLTVLG
notes: Human IgG1 with a lambda light chain; also called anti-ICAM1 clone G12
- EC50 [1]: 0.26 nM
- Max Binding MFI [1]: 5010 MFI
- Kd [2]: 12.2 nM
- koff [2]: 0.00331 s⁻¹
- kon [2]: 272000 M⁻¹ s⁻¹
- Kd [3]: 17.7 nM
- koff [3]: 0.0224 s⁻¹
- kon [3]: 1.27e+06 M⁻¹ s⁻¹
- Kd [4]: 3.2 nM
- koff [4]: 0.000763 s⁻¹
- kon [4]: 242000 M⁻¹ s⁻¹
- EC50 (read off the curve) [5]: ~0.04 nM
- EC50 (read off the curve) [6]: ~0.04 nM
